Assay results published in patent US20180118814A1 (IGM BIOSCIENCES, published 2018).

T1: HBsAg (Prospec HBS-872) (hepatitis B virus)
T1 chain: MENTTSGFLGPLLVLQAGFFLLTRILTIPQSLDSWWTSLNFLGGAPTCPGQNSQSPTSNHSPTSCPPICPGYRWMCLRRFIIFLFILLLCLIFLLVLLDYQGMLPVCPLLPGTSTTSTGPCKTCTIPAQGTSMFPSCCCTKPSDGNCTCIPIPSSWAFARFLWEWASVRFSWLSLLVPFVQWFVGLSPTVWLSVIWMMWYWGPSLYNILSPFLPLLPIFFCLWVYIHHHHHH


Molecular target: T1, HBsAg (Prospec HBS-872)
Test: ELISA, plate coated with HBsAg (Prospec HBS-872), anti-human lambda-HRP detection, weight concentrations

Binder	EC50 [µg/mL]
HBV23G (antibody, human IgG1, lambda, V domains shown, also called IgG counterpart (HBV23G); human IgG antibody provided in Cerino et al. (2015)) VH: EVQVLESGGGLVQPGGSLRLSCAASGFRFSSYAMSWVRQAPGKGLEWVSGISGTGENTYYADSVKGRFTISRDNSKNTLYVQMNSLRAEDTAVYYCAKDAILGSGHPWYFHVWGRGTLVTVSS VL: SYVLTQPPSVSVAPGQTARMTCGGNNIGSESVHWFQQKPGQAPVLVVYDDSDRPSGIPERFSGSNSGNTATLTISRVEAGDEADYYCQVWDSSSDHAVFGGGTQLTVLG	0.03
HBV23MJ (antibody, Human IgM with human J-chain; also called HBV23 anti-HBsAg IgM+human J-chain) heavy: EVQVLESGGGLVQPGGSLRLSCAASGFRFSSYAMSWVRQAPGKGLEWVSGISGTGENTYYADSVKGRFTISRDNSKNTLYVQMNSLRAEDTAVYYCAKDAILGSGHPWYFHVWGRGTLVTVSSGSASAPTLFPLVSCENSPSDTSSVAVGCLAQDFLPDSITFSWKYKNNSDISSTRGFPSVLRGGKYAATSQVLLPSKDVMQGTDEHVVCKVQHPNGNKEKNVPLPVIAELPPKVSVFVPPRDGFFGNPRKSKLICQATGFSPRQIQVSWLREGKQVGSGVTTDQVQAEAKESGPTTYKVTSTLTIKESDWLSQSMFTCRVDHRGLTFQQNASSMCVPDQDTAIRVFAIPPSFASIFLTKSTKLTCLVTDLTTYDSVTISWTRQNGEAVKTHTNISESHPNATFSAVGEASICEDDWNSGERFTCTVTHTDLPSPLKQTISRPKGVALHRPDVYLLPPAREQLNLRESATITCLVTGFSPADVFVQWMQRGQPLSPEKYVTSAPMPEPQAPGRYFAHSILTVSEEEWNTGETYTCVVAHEALPNRVTERTVDKSTGKPTLYNVSLVMSDTAGTCY light: SYVLTQPPSVSVAPGQTARMTCGGNNIGSESVHWFQQKPGQAPVLVVYDDSDRPSGIPERFSGSNSGNTATLTISRVEAGDEADYYCQVWDSSSDHAVFGGGTQLTVLGQPKAAPSVTLFPPSSEELQANKATLVCLISDFYPGAVTVAWKADSSPVKAGVETTTPSKQSNNKYAASSYLSLTPEQWKSHRSYSCQVTHEGSTVEKTVAPTECS not shown	0.064
